Test results reported in patent US20190271704.

Key:
[1] = tested on: T1, NE peptide substrate with acetylated N-terminal CKKK-PEG4 linker and C-terminal pentafluoropropylamine reporter (peptide-PFC)
T1 sequence: CKKKXXXX

[2] = tested on: T2, NE peptide substrate with acetylated N-terminal CKKK-PEG4 linker and C-terminal heptafluorobutylamine reporter (peptide-PFC)
T2 sequence: CKKKXXXX

MMP9
PFC release from the peptide substrate (real-time vapor analysis mass spectrometry) [1]: minimal cleavage by other proteases ... (MMP9 and MMP13 | PFC release from the peptide substrate (real-time vapor analysis mass spectrometry) [2]: minimal cleavage by other proteases ... (MMP9 and MMP13

MMP13
PFC release from the peptide substrate (real-time vapor analysis mass spectrometry) [1]: minimal cleavage by other proteases ... (MMP9 and MMP13 | PFC release from the peptide substrate (real-time vapor analysis mass spectrometry) [2]: minimal cleavage by other proteases ... (MMP9 and MMP13
